Assay results: US6541208B1, “Diagnostic method for distinguishing HIV-associated dementia from other forms of dementia” (University of Maryland Biotechnology Institute, priority 1998, dated 2003)
Entries after “also recorded” stand apart in the source; their conditions may differ.

Tests used:
[1] = tested on: astrocytic MCP-1 expression; experiment: Northern blot analysis of MCP-1 RNA in stimulated human astrocytes; assay type: cell-based
Excerpt: FIG. 1A—Total RNA was extracted from T lymphoblastoid HUT 78 cells (ATCC), and from variously treated human astrocytes. Ten μg per lane were then run on a 1% agarose-6% formaldehyde gel. Following transfer of RNA to nitrocellulose, the blot was probed with the full-length cDNA for MCP-1, and subsequently, RANTES. RNA from untreated astrocytes was run in lanes 2 and 4. […] Astrocytic expression of RANTES was not detected.
FIG. 1B—Similar experience except that RNA from HUT 78 cells (lane 1) was compared to RNA from astrocytes that were unstimulated (lane 2) or stimulated for 2 hr with 100 nM Tat (lane 3), 25 μM TPCK followed by 100 nM Tat (lane 4) or 25 μM TPCK (lane 5).
Brain tissue from 12-14 wk human fetuses was obtained in accordance with NIH guidelines. The tissue was mechanically disrupted by aspiration through a 19-gauge needle, washed in Eagle's minimal essential medium (EMEM) and then distributed into tissue culture flasks. Cells were maintained in EMEM containing 10% fetal bovine serum, 2 mM L-glutamine and 5 μg/ml gentamicin. Several days later, flasks were placed into an orbital incubator shaker at 37° C. and 210 rpm for 6 hr. Non-adherent cells were removed. A portion of the adherent cells were later stained with an antibody to glial fibrallary acidic protein and only those cultures which were >95% positive were used. […]

[2] = tested on: astrocytic release of MCP-1; experiment: Immunoassay (ELISA) and Western blot of MCP-1 in astrocyte supernatants; assay type: cell-based, human
Procedure: FIG. 2A—Astrocytes were grown to near confluency in […]. Each well contained 10^6 cells in 1 ml medium. Medium was then changed and astrocytes were stimulated with exogenous Tat in doses ranging from 0.01 to 1.0 μM. Twenty hr later, samples were taken for analysis by immunoassay (R&D Systems). […] Data are shown as means +S.E. for three replicates.
FIG. 2B—Similar experiment except that astrocytes were stimulated with 100 nM Tat or with an equivalent amount of Tat that had first been either digested with tripsin (Tat-tr) or immunoabsorbed (Tat-im).
FIG. 3—Western blot analysis of MCP-1 in astrocyte supernatants. In lanes 2-7, 50 μg of protein from variously treated astrocyte supernatants were run on a 15% Tris/Glycine denaturing gel. Three ng of non-glycosylated recombinant MCP-1 (R&D Systems) were run in lane 1 as a control. Following protein transfer to nitrocellulose, the blot was probed with a polyclonal antibody with recognized human MCP-1 (R&D Systems). After washing, an appropriate secondary antibody was applied (horse radish peroxidase conjugated anti-goat, [Santa-Cruz Biotechnology]) and electrochemilurninescence (Amersham) was used to visualize the bands. […] The lower arrow represents a band, which runs with an apparent molecular mass of 9 kDa while the upper band, of slighter high molecular mass, is likely to represent MCP-1, which has been altered by the addition of O-linked carbohydrates. Both forms of MCP-1 are active in vitro.
Astrocytes (10^6 per 1 ml medium) were stimulated with 100 nM HIV-1IIIB gp41 (Intracel) or 100 nM HIV-1IIB gp 120 (Intracel), and supernantants were assessed 24 hr. later by immunoassay (R&D Systems).
Trypsin digestion of Tat was performed by the addition of 25 μl of 0.25% trypsin per μg of Tat. The mixture was then incubated for 4 hr. before the 1:1 addition of soybean tripsin inhibitor (Sigma).
Immunoabsorption of Tat was performed as described previously by Magnusson et al. (1995). Briefly, a Tat specific monoclonal antibody (Intracel) was bound to protein A-sepharose (Pharmacia), washed, and then incubated with Tat for 60 min at room temperature, followed by centrifugation.
(§1) To determine whether increased expression of MCP-1 would correlate with increased protein synthesis or release, we next analyzed the supernatants of Tat treated astrocytes by ELISA and Western blot. […] This increase was specific in that astrocytic release of RANTES, MIP-1α and MIP-1β was not observed.

astrocytes = experiment: Astrocyte proliferation assay (tritiated thymidine); assay type: cell-based, human; conditions: Tat 10-1000 nM, twenty hr after administration
Procedure: Astrocytes were grown in 96 well plates. At 70% confluency, cells were treated with varying concentrations of exogenous Tat, in media, which contained 1 μCi per well of tritiated thymidine (New England Nuclear). […] Filters were then dried and placed into scintillation fluid for counting in a Betaplate Apparatus.

[3] = tested on: astrocytic release of RANTES, MIP-1α and MIP-1β; experiment: ELISA detection of RANTES, MIP-1α and MIP-1β in astrocyte supernatants; assay type: cell-based, human; conditions: Tat treated astrocytes; ELISA detection limit 10 pg/ml
Procedure: MIP1-1α, MIP-1β and RANTES were detected by ELISA (R&D Systems). These ELISAs could detect concentrations as low as 10 pg/ml. Protein measurements were determined by comparison to a standard curve, run in duplicate with each assay.
as §1

B1: Tat: Highly purified recombinant Tat1-72, HIV-1 encoded transactivator protein (protein, UniProt P04608 1-72, looked up, fragment)
chain: MEPVDPRLEPWKHPGSQPKTACTNCYCKKCCFHCQVCFITKALGISYGRKKRRQRRRAHQNSQTHQASLSKQ
astrocytic MCP-1 expression (MCP-1 encoding RNA) ([1]; 100 nM Tat, 2 or 4 hr stimulation, human astrocytes): increase in astrocytic MCP-1 expression; also recorded: increase in MCP-1 encoding RNA as early as 2 hr | release of MCP-1 after pre-treatment of Tat with trypsin ([2]; 100 nM equivalent of Tat digested with trypsin (Tat-tr)): could be inhibited | release of MCP-1 after immunoabsorption of Tat with a specific antibody ([2]; 100 nM equivalent of immunoabsorbed Tat (Tat-im)): could be inhibited | astrocytic release of MCP-1 ([2]; Tat 0.01 to 1.0 μM, 20 hr, 10^6 cells in 1 ml medium): significant increase in MCP-1 release; also recorded: dose-dependent increase in astrocytic release of MCP-1 | concentrations of Tat sufficient to increase astrocytic MCP-1 release ([2]; human astrocytes): low nanomolar | astrocyte proliferation (astrocytes): no measurable increase in astrocyte proliferation | astrocytic release of RANTES, MIP-1α and MIP-1β [3]: not observed

B2: Tat1-86: Tat1-86 (Intracel), HIV-1 Tat protein (protein, UniProt P04608 1-86, looked up)
chain: MEPVDPRLEPWKHPGSQPKTACTNCYCKKCCFHCQVCFITKALGISYGRKKRRQRRRAHQNSQTHQASLSKQPTSQPRGDPTGPKE
modifications: full-length
notes: Tat1-86 (Intracel), HIV-1 Tat protein
ability to increase astrocytic expression of MCP-1, compared with Tat1-72 ([1]; Tat1-86 (Intracel) versus recombinant Tat1-72): similar
